{
  "source": "paper PMC5342555",
  "about": "“ATAD2 is an epigenetic reader of newly synthesized histone marks during DNA replication” (Oncotarget, 2016)",
  "key": {"[1]": {"test_system": "MCF7 cells", "test": "Fluorescence recovery after photobleaching (FRAP)", "format": "cell-based", "details": "TagGFP-tagged ATAD2 in MCF7, FRAP, 20 images; mean ± SEM", "experimental": "Immunofluorescence of cells were saved for whole cell extract and the rest was subjected for subsequent fractionation. Whole cell extract\nCells were grown on Matrigel-coated coverslips and was prepared by incubating cells in ice-cold RIPA buffer fixed in 4 % formaldehyde in PBS for 15 min at RT or in (25 mM Tris·HCl pH 7.6, 150 mM NaCl, 1 % NP-40, 1 100 % methanol for 7 min at -20 °C. After removing the % sodium deoxycholate, 0.1 % SDS) supplemented with residual FA or methanol by washing in PBS cells were protease inhibitor cocktail (Roche) for 10 min on ice and permeabilized in blocking solution (10 % goat serum sonicated at medium power, 0.5 intervals in BIORUPTOR and 0.3 % Triton X-100 in PBS) for 10 min at RT and for 3 min at 4 °C. Soluble lysate was recovered by incubated with primary antibodies in blocking solution. removing insoluble fractions after centrifugation at 20000 Following the removal of unbound antibodies by washing x g for 10 min 5 to 20 μg of lysates were used for SDS gel in PBS cells were incubated with secondary antibodies electrophoresis and Western blot. conjugated with Alexa Fluor 488, 555 or 647 (Invitrogen), washed and mounted on slides in presence of DAPI for Fluorescence recovery after photobleaching visualization of nucleus. Images were acquired using an (FRAP) inverted Zeiss LSM700 confocal microscope using a 488 nm Diode-Pumped Solid State Laser with a 63X, 1.3 N.A. FRAP experiment was performed as previously oil-immersion objective. For EdU labelling cells were described with minor modifications. […]\nand fixed in 2 % FA for 10 min at RT. […] The image series were imported in Fiji and 100 % MeOH for 10 min at – 20 °C and incubated in average fluorescence was in the bleached region (F(t)ROI), stain buffer with 5 % normal goat serum for 10 min at the total cell nucleus (F(t)total) and a background (F(t)BG) RT for blocking. Then indirect staining was performed were determined. The relative fluorescence intensity"}, "[2]": {"test_system": "MCF7 cells", "test": "EdU incorporation (DNA replication) by flow cytometry", "format": "cell-based", "details": "MCF7 overexpressing tagGFP-tagged ATAD2, gated by tagGFP; mean ± SEM, n = 3 independent experiments", "experimental": "informed consent was obtained (Indivumed, Hamburg, by incubating cells with primary antibodies for 1 h at Germany; Asterand, Detroit USA; Provitro Berlin, RT followed by labelling with secondary antibodies Germany) of different indications. Immunohistochemistry conjugated with Alexa488 or Alexa647 for 30 min at was performed using EnVision System-HRP (DAB) from RT in dark. For analysis of TagGFP-ATAD2 expressing Dako (K4006 and K4010). Prior to immunostaining the cells GFP was stained by GFP antibody to enhance the slides were deparaffinized and rehydrated in xylene and fluorescence signal. DNA was stained by DAPI at 1 μg/ graded ethanol to distilled water. Antigen was retrieved by ml for 10 min at RT. For EdU (5-ethynyl-2'-deoxyuridine) incubating the tissue in boiling Target Retrieval Solution labelling cells were incubated in 10 μM EdU for 2h at 37 pH 6.0 (Dako S2031) for 40 min and letting them cool °C prior to fixation and staining was carried out according […]\nPeroxidase-Block for 15 min at RT the slides were washed Fluor® 647 Flow Cytometry Assay Kit, ThermoFisher). twice in washing buffer (PBS with 0.05 % Tween 20) and Cells were analyzed by flow cytometry using a BD LSR incubated with primary antibodies in Antibody-Diluent II. All imaging and quantifications were performed using […]\n(Dako S2022) for 90 min at RT. […]\nImmunofluorescence of cells were saved for whole cell extract and the rest was subjected for subsequent fractionation. Whole cell extract […]\nand fixed in 2 % FA for 10 min at RT. […] The image series were imported in Fiji and 100 % MeOH for 10 min at – 20 °C and incubated in average fluorescence was in the bleached region (F(t)ROI), […]"}},
  "data": [
    {"molecule": "WT: TagGFP-tagged WT ATAD2 expressed in MCF7 cells (protein, left off: tagGFP, end not stated, kept, TagGFP-tagged WT ATAD2 expressed in MCF7 cells) MVVLRSSLELHNHSAASATGSLDLSSDFLSLEHIGRRRLRSAGAAQKKPAATTAKAGDGSSVKEVETYHRTRALRSLRKDAQNSSDSSFEKNVEITEQLANGRHFTRQLARQQADKKKEEHREDKVIPVTRSLRARNIVQSTEHLHEDNGDVEVRRSCRIRSRYSGVNQSMLFDKLITNTAEAVLQKMDDMKKMRRQRMRELEDLGVFNETEESNLNMYTRGKQKDIQRTDEETTDNQEGSVESSEEGEDQEHEDDGEDEDDEDDDDDDDDDDDDDDEDDEDEEDGEEENQKRYYLRQRKATVYYQAPLEKPRHQRKPNIFYSGPASPARPRYRLSSAGPRSPYCKRMNRRRHAIHSSDSTSSSSSEDEQHFERRRKRSRNRAINRCLPLNFRKDELKGIYKDRMKIGASLADVDPMQLDSSVRFDSVGGLSNHIAALKEMVVFPLLYPEVFEKFKIQPPRGCLFYGPPGTGKTLVARALANECSQGDKRVAFFMRKGADCLSKWVGESERQLRLLFDQAYQMRPSIIFFDEIDGLAPVRSSRQDQIHSSIVSTLLALMDGLDSRGEIVVIGATNRLDSIDPALRRPGRFDREFLFSLPDKEARKEILKIHTRDWNPKPLDTFLEELAENCVGYCGADIKSICAEAALCALRRRYPQIYTTSEKLQLDLSSINISAKDFEVAMQKMIPASQRAVTSPGQALSTVVKPLLQNTVDKILEALQRVFPHAEFRTNKTLDSDISCPLLESDLAYSDDDVPSVYENGLSQKSSHKAKDNFNFLHLNRNACYQPMSFRPRILIVGEPGFGQGSHLAPAVIHALEKFTVYTLDIPVLFGVSTTSPEETCAQVIREAKRTAPSIVYVPHIHVWWEIVGPTLKATFTTLLQNIPSFAPVLLLATSDKPHSALPEEVQELFIRDYGEIFNVQLPDKEERTKFFEDLILKQAAKPPISKKKAVLQALEVLPVAPPPEPRSLTAEEVKRLEEQEEDTFRELRIFLRNVTHRLAIDKRFRVFTKPVDPDEVPDYVTVIKQPMDLSSVISKIDLHKYLTVKDYLRDIDLICSNALEYNPDRDPGDRLIRHRACALRDTAYAIIKEELDEDFEQLCEEIQESRKKRGCSSSKYAPSYYHVMPKQNSTLVGDKRSDPEQNEKLKTPSTPVACSTPAQLKRKIRKKSNWYLGTIKKRRKISQAKDDSQNAIDHKIESDTEETQDTSVDHNETGNTGESSVEENEKQQNASESKLELRNNSNTCNIENELEDSRKTTACTELRDKIACNGDASSSQIIHISDENEGKEMCVLRMTRARRSQVEQQQLITVEKALAILSQPTPSLVVDHERLKNLLKTVVKKSQNYNIFQLENLYAVISQCIYRHRKDHDKTSLIQKMEQEVENFSCSR", "values": [
      {"measurement": "half recovery time (recovery t1/2)", "setting": "[1]", "value": 17.740, "unit": "s"},
      {"measurement": "EdU incorporation (normalized to control)", "setting": "[2]", "value": "0.75 ± 0.03"}
    ]},
    {"molecule": "ATPase mut: TagGFP-tagged ATPase mutant ATAD2 (K473T, E532Q) expressed in MCF7 cells (protein, left off: tagGFP, end not stated, kept, TagGFP-tagged ATPase mutant ATAD2 (K473T, E532Q) expressed in MCF7 cells) MVVLRSSLELHNHSAASATGSLDLSSDFLSLEHIGRRRLRSAGAAQKKPAATTAKAGDGSSVKEVETYHRTRALRSLRKDAQNSSDSSFEKNVEITEQLANGRHFTRQLARQQADKKKEEHREDKVIPVTRSLRARNIVQSTEHLHEDNGDVEVRRSCRIRSRYSGVNQSMLFDKLITNTAEAVLQKMDDMKKMRRQRMRELEDLGVFNETEESNLNMYTRGKQKDIQRTDEETTDNQEGSVESSEEGEDQEHEDDGEDEDDEDDDDDDDDDDDDDDEDDEDEEDGEEENQKRYYLRQRKATVYYQAPLEKPRHQRKPNIFYSGPASPARPRYRLSSAGPRSPYCKRMNRRRHAIHSSDSTSSSSSEDEQHFERRRKRSRNRAINRCLPLNFRKDELKGIYKDRMKIGASLADVDPMQLDSSVRFDSVGGLSNHIAALKEMVVFPLLYPEVFEKFKIQPPRGCLFYGPPGTGTTLVARALANECSQGDKRVAFFMRKGADCLSKWVGESERQLRLLFDQAYQMRPSIIFFDQIDGLAPVRSSRQDQIHSSIVSTLLALMDGLDSRGEIVVIGATNRLDSIDPALRRPGRFDREFLFSLPDKEARKEILKIHTRDWNPKPLDTFLEELAENCVGYCGADIKSICAEAALCALRRRYPQIYTTSEKLQLDLSSINISAKDFEVAMQKMIPASQRAVTSPGQALSTVVKPLLQNTVDKILEALQRVFPHAEFRTNKTLDSDISCPLLESDLAYSDDDVPSVYENGLSQKSSHKAKDNFNFLHLNRNACYQPMSFRPRILIVGEPGFGQGSHLAPAVIHALEKFTVYTLDIPVLFGVSTTSPEETCAQVIREAKRTAPSIVYVPHIHVWWEIVGPTLKATFTTLLQNIPSFAPVLLLATSDKPHSALPEEVQELFIRDYGEIFNVQLPDKEERTKFFEDLILKQAAKPPISKKKAVLQALEVLPVAPPPEPRSLTAEEVKRLEEQEEDTFRELRIFLRNVTHRLAIDKRFRVFTKPVDPDEVPDYVTVIKQPMDLSSVISKIDLHKYLTVKDYLRDIDLICSNALEYNPDRDPGDRLIRHRACALRDTAYAIIKEELDEDFEQLCEEIQESRKKRGCSSSKYAPSYYHVMPKQNSTLVGDKRSDPEQNEKLKTPSTPVACSTPAQLKRKIRKKSNWYLGTIKKRRKISQAKDDSQNAIDHKIESDTEETQDTSVDHNETGNTGESSVEENEKQQNASESKLELRNNSNTCNIENELEDSRKTTACTELRDKIACNGDASSSQIIHISDENEGKEMCVLRMTRARRSQVEQQQLITVEKALAILSQPTPSLVVDHERLKNLLKTVVKKSQNYNIFQLENLYAVISQCIYRHRKDHDKTSLIQKMEQEVENFSCSR", "values": [
      {"measurement": "half recovery time (recovery t1/2)", "setting": "[1]", "value": 2.514, "unit": "s"},
      {"measurement": "EdU incorporation (normalized to control)", "setting": "[2]", "value": "0.38 ± 0.09"}
    ]}
  ]
}
